Source: paper doi:10.1101/2021.01.18.427223

Molecular target: VPS35 D620N (VPS35 D620N knock-in mouse, VKI) (mouse (endogenous in brain)), Q9EQH3
Assay: co-IP
Details: remark: other sources report otherwise

B1: WASH complex member FAM21, Q6PGL7 1-1334 (natural protein)
chain: MNRTSPDSERPPASEPVWERPWSVEEIRRSSQNWSLAADAGLLQFLQEFSQQTISRTHEIKKQVDGLIQETKATHCRLHNVFNDFLMLSNTQFIENRVYDEEVEEQVLKAEAEKAEQEKTREQKEIDLIPKVQEAVNYGLQVLDSAFEQLDIKAGNSDSEEDDANERVDLILEPKDLYIDRPLPYLIGSKLFMEQEDVGLGELSSEEGSVGSDRGSIVDSEDEKEEEESDEDFASHSDNDQNQHTTQISDEEEDDDGDLFADSEKEGDDIEDIEESAKSKRPTSFADELAARIKGDISNQRKEGQTDGKPQKTVKEKKERRTPADDEEDILFPPPTLTDEDFSPFGSRGGLFSNGQGLFDDEDESDLFKEAPRARPAQAPVSEELPPSPKPGKKIPAGAVSVLLGHPDVSGSTSAPSLKELQKHGQPTPGKSSHLPTPAGLFDDDDNDNDEDDNNFFMPSSSKPSKTDKVKSTAIIFDDDEGDLFKEKAEALPAASVSQTHESKTRADKTIALPSSKNLKLVSETKTQKGLFSDEEDSEDLFSSQSSSKPKSASLPSSQPPTSVSLFGDEDEEDSLFGSAAAKKQTSSLQPQSQEKAKPSEQPSKKTSALLFSSDEEDQWNIADSHTKLASDNKSKGELWDSGATQGQEAKAVKKTNLFEDDDDDEVDLFAIAKDSQKKTQRTSLLFEDDAESGSSLFGLPPTSVPSATTKKESVPKVPLLFSDEEDSEVPSGVKPEDLKVDNARVSPEVGSADVASIAQKEGLLPASDQEAGGPSDIFSSSSPLDKGAKGRTRTVLSLFDEDEDKVEDESSTCAPQDGREKGLKTDSRPKSTGVFQDEELLFSHKLQKDNDPDVDLFAGTKKIRSSVPSGGSLFGDDEDDDLFSSAKTQPVVPEKKGTLKKDHPVSLKNQDPLDSTQGSKEKSTWKTEPAQDSSGLTPFKSREPSSRIGKIQANLAINPAALLPTVALQIPGTKPVSSELAFPSSEPGRSHILESVPTLPGSVEAGVSFDLPAQADTLHSANKSRVKVRGKRRPQTRAARRLAAQESSEAEDVTVDRGPVAQLSSSPVLPNGHQPLLQPRMASGQTSSETATAPPWEGGPVLSAADRSFFVKSRPQTGNEADLFDSGDIFPKSRGSQSVEGAGVMAGEPPSHSSGGRKEKSLAFPDLSEGSSTEDLFQSVKPRAAKNRNPFPLLEDEEDLFADPRGKKNERKPDSHQDSVSKTHDIFEDDIFATEAIKPFPKKREKGRTLEPNLFDDNIDIFADLTVKPKEKSKKKVAAKSMFDDDTDDIFSSGLQAKASKPKSQSAEAASEQRSEHKVASIFDDPLNAFGSQ
B1 showed a percent reduction of co-IP against wild type of 25 to 30%.
